# What was measured:
# 5HT3a = target: T1, 5HT3a (Homo sapiens, UniProt P46098); test: Ion channel panel (IonWorks Barracuda): 5HT3a; type: cell-based
# T1 construct: host or cells: HEK293 or CHO
# T1 sequence (P46098 whole entry, looked up): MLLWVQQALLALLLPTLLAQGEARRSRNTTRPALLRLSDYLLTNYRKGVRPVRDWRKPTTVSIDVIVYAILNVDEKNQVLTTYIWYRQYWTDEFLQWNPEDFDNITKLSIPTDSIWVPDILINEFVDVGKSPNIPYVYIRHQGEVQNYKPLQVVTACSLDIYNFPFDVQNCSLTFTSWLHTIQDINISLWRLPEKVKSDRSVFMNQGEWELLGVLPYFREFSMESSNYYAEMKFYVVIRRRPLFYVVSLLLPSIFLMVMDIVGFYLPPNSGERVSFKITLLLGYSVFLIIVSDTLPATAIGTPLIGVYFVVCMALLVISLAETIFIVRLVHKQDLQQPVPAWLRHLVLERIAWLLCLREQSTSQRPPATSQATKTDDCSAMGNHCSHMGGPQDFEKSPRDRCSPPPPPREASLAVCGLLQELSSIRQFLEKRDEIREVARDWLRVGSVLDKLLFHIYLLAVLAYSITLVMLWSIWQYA
# Summary of the method: (§1)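 Peptides were tested in duplicate at final 20 μM and 200 nM, with concentration set by amino acid analysis, in HEPES-buffered saline. They were applied for at least 5 min to HEK293 or CHO cells transfected with each channel. Currents were expressed as % inhibition, 1-(Ipeptide/Icontrol)×100, or % activation, Ipeptide/Icontrol×100, against a channel-matched reference compound.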
# α3β4 = target: T2, α3β4 (Homo sapiens, UniProt P30926+P32297); test: Ion channel panel (IonWorks Barracuda): α3β4; type: cell-based; details: 100% = no change, <100% = inhibition
# T2 construct: host or cells: HEK293 or CHO
# Summary of the method: as §1
# α4β2 = target: T3, α4β2 (Homo sapiens, UniProt P17787+P43681); test: Ion channel panel (IonWorks Barracuda): α4β2; type: cell-based; details: 100% = no change, <100% = inhibition
# T3 construct: host or cells: HEK293 or CHO
# Summary of the method: as §1
# Cav2.1 = target: T4, Cav2.1 (Homo sapiens, UniProt O00555); test: cell-based; details: 100% = no change, <100% = inhibition
# T4 construct: host or cells: HEK293 or CHO
# Summary of the method: as §1
# Cav2.2 = target: T5, Cav2.2 (Homo sapiens, UniProt Q00975); test: cell-based; details: 100% = no change, <100% = inhibition
# T5 construct: host or cells: HEK293 or CHO
# Summary of the method: as §1
# Kv2.1 = target: T6, Kv2.1 (Homo sapiens, UniProt Q14721); test: cell-based; details: 100% = no change, <100% = inhibition
# T6 construct: host or cells: HEK293 or CHO
# Summary of the method: as §1
# GABA = test: Ion channel panel (IonWorks Barracuda): GABA; type: cell-based; details: 100% = no change, <100% = inhibition
# Summary of the method: as §1
# Nav1.5 = Nav1.5 (Homo sapiens, UniProt Q14524); test: in vitro; details: 100% = no change; for Activity of Nav1.5 with peptide, expressed as a percentage of the reference compound: peptide at 0.2 μM; for Activity of Nav1.5 with peptide (percentage of the reference compound): peptide at 20 μM
# Nav1.5, sequence (Q14524 whole entry): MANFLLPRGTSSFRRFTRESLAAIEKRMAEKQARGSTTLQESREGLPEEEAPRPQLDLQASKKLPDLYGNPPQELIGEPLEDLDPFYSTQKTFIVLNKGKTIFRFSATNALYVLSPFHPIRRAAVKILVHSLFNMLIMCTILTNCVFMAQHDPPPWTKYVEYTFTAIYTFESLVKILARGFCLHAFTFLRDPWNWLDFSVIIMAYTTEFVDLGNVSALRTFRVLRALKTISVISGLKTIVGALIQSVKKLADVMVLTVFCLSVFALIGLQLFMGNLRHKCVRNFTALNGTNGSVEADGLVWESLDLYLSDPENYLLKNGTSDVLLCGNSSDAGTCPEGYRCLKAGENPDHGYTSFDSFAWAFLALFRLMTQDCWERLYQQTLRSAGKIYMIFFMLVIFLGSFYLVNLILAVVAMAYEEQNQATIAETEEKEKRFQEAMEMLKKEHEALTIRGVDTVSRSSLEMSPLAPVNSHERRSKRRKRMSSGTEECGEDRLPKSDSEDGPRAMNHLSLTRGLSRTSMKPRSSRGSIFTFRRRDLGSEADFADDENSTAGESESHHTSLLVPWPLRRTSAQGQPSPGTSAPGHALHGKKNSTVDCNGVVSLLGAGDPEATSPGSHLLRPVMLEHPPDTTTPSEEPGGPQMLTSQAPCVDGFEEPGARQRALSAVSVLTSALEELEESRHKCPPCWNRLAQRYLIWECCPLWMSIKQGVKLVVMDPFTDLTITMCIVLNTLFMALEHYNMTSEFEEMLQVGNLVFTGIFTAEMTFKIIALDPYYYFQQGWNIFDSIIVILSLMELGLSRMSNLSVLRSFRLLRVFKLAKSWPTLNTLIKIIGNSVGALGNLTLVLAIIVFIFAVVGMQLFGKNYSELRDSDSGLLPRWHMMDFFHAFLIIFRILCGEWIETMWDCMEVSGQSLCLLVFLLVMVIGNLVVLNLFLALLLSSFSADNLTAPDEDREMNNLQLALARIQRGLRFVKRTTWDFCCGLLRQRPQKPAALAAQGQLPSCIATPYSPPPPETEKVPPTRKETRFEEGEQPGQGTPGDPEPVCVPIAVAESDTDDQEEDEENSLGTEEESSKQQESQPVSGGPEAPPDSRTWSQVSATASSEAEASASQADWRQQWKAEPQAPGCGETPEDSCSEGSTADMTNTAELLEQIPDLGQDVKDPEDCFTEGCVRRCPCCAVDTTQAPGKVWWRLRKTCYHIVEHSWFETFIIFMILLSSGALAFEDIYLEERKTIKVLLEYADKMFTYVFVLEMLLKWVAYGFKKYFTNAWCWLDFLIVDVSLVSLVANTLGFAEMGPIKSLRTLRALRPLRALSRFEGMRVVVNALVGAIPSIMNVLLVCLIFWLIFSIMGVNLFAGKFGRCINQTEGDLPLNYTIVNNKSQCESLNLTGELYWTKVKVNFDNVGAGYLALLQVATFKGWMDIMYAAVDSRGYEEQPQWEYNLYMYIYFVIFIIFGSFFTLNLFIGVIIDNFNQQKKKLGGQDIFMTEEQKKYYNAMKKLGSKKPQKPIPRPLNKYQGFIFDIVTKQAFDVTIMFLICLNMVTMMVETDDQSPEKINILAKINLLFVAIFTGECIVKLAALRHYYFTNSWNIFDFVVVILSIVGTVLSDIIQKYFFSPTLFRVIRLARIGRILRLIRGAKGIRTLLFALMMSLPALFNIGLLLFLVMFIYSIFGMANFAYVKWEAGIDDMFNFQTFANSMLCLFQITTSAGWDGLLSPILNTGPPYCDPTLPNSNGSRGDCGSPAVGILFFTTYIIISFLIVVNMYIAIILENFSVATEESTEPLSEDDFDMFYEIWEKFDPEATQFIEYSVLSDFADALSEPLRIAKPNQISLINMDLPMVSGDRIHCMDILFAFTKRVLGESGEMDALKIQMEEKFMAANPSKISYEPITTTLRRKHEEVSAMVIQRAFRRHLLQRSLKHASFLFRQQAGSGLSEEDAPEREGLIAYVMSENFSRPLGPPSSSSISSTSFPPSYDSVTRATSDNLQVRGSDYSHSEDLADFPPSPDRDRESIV
# Summary of the method: as §1
# hERG = hERG (Homo sapiens, UniProt Q12809); test: in vitro; details: 100% = no change, <100% = inhibition
# Summary of the method: as §1
# Kir2.1 = target: T7, Kir2.1 (Homo sapiens, UniProt P63252); test: Ion channel panel (IonWorks Barracuda): Kir2.1; type: cell-based; details: 100% = no change, <100% = inhibition
# T7 construct: host or cells: HEK293 or CHO
# Summary of the method: as §1
# Kv1.1 = target: T8, Kv1.1 (Homo sapiens, UniProt Q09470); test: cell-based; type: cell-based; details: 100% = no change, <100% = inhibition
# T8 construct: host or cells: HEK293 or CHO
# Summary of the method: as §1
# Kv1.2 = target: T9, Kv1.2 (Homo sapiens, UniProt P16389); test: cell-based; type: cell-based; details: 100% = no change, <100% = inhibition
# T9 construct: host or cells: HEK293 or CHO
# Summary of the method: as §1
# Kv1.3 = target: T10, Kv1.3 (Homo sapiens, UniProt P22001); test: cell-based; type: cell-based; details: 100% = no change, <100% = inhibition
# T10 construct: host or cells: HEK293 or CHO
# Summary of the method: as §1
# Nav1.7 = target: T11, Nav1.7 (Homo sapiens, UniProt Q15858); test: cell-based; type: cell-based; details: 100% = no change; for Activity of Nav1.7 with peptide, expressed as a percentage of the reference compound: peptide at 0.2 μM; for Activity of Nav1.7 with peptide (percentage of the reference compound): peptide at 20 μM
# T11 construct: host or cells: HEK293 or CHO
# T11 sequence (Q15858 whole entry): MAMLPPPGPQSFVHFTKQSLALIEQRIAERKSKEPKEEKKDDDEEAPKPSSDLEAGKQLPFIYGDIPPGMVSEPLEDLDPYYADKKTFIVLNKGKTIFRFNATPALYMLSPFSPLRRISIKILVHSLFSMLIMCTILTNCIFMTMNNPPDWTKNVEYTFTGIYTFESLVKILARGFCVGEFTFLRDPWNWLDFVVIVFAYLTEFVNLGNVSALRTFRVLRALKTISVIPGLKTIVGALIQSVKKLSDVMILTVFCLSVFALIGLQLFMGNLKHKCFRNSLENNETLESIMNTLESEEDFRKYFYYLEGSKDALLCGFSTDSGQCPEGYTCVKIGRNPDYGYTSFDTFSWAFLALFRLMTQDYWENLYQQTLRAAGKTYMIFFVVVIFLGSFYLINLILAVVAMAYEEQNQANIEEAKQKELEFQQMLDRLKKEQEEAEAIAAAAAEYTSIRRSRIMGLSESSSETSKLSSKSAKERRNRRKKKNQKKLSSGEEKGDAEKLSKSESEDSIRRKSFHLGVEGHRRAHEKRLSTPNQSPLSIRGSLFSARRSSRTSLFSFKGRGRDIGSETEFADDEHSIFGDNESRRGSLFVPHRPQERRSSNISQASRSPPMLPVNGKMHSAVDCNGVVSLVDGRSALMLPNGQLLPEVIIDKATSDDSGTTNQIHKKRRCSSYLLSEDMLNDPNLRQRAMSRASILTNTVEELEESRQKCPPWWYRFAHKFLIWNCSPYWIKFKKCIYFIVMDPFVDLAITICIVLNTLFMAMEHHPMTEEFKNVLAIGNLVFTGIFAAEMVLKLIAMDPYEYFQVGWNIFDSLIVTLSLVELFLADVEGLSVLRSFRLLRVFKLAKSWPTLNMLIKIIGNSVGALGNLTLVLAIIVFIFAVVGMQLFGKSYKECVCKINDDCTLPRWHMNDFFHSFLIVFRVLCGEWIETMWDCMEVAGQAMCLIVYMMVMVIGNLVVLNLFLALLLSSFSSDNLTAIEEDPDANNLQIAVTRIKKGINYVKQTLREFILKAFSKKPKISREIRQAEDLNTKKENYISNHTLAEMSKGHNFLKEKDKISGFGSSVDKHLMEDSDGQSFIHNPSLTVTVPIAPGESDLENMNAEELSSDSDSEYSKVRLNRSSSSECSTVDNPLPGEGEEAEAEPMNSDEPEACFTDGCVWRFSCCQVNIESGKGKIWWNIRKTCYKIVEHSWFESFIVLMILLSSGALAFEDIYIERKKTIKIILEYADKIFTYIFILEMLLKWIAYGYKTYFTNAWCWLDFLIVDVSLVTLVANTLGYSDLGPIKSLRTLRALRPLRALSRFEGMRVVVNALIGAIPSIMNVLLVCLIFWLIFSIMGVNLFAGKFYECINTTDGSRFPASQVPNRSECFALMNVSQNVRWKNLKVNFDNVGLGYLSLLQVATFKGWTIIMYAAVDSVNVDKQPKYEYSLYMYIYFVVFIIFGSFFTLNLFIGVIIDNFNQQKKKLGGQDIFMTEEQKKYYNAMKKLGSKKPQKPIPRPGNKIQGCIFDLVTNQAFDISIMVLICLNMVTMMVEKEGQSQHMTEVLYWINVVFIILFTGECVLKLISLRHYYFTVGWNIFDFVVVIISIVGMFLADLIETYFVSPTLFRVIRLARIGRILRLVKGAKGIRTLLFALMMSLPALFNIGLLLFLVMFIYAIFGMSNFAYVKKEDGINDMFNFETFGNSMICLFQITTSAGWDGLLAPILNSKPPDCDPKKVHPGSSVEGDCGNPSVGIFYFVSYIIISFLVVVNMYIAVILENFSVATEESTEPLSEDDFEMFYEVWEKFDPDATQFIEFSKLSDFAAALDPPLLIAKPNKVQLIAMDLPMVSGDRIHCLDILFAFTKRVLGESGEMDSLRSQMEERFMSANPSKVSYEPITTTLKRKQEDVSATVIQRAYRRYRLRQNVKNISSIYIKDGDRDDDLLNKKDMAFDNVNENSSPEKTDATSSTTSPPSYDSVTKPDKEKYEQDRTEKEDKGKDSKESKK
# NR2A = target: T12, NR2A (Homo sapiens, UniProt Q12879); test: Ion channel panel (IonWorks Barracuda): NR2A; type: cell-based; details: 100% = no change, <100% = inhibition
# T12 construct: host or cells: HEK293 or CHO
# Summary of the method: as §1
# NR2B = target: T13, NR2B (Homo sapiens, UniProt Q13224); test: Ion channel panel (IonWorks Barracuda): NR2B; type: cell-based; details: 100% = no change, <100% = inhibition
# T13 construct: host or cells: HEK293 or CHO
# Summary of the method: as §1
# TRPA1 = target: T14, TRPA1 (Homo sapiens, UniProt O75762); test: Ion channel panel (IonWorks Barracuda): TRPA1; type: cell-based; details: 100% = no change, <100% = inhibition
# T14 construct: host or cells: HEK293 or CHO
# Summary of the method: as §1
# TRPV1 = target: T15, TRPV1 (Homo sapiens, UniProt Q8NER1); test: Ion channel panel (IonWorks Barracuda): TRPV1; type: cell-based; details: 100% = no change, <100% = inhibition
# T15 construct: host or cells: HEK293 or CHO
# T15 sequence (Q8NER1 whole entry): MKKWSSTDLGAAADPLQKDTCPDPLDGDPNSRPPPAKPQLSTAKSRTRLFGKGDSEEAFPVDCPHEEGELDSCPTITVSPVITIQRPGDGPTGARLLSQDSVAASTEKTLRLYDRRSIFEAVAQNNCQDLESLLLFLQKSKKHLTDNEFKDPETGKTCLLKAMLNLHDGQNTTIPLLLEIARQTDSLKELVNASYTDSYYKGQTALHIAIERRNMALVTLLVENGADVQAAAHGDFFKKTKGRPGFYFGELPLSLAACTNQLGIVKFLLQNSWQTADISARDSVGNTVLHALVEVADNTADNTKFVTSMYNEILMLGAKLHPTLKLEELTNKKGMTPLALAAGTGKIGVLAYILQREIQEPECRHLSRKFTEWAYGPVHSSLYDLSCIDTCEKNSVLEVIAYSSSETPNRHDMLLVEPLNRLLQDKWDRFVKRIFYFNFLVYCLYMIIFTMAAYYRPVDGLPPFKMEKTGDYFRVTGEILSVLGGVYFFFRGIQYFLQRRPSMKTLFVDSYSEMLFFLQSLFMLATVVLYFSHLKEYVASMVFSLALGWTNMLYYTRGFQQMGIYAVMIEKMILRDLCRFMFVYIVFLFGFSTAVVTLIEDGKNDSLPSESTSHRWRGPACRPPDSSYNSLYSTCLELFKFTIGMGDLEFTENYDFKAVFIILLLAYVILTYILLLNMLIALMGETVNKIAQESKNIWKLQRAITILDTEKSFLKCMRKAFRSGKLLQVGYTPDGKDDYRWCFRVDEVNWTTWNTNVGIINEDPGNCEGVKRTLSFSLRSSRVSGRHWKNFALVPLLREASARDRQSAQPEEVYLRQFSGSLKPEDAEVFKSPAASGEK
# Summary of the method: as §1
# [1] = first of two Nav1.5 columns (probably TP1)
# [2] = second of two Nav1.5 columns (probably TP2)
# [3] = first of two Nav1.7 columns (probably TP1)
# [4] = second of two Nav1.7 columns (probably TP2)
substance,measurement,setting,value
38 (GSGIGDPVTCLKSGAICHPVFCPRRYKQIGTCGLPGTKCCKKP) [compound 38],Activity of 5HT3a with peptide (percentage of the reference compound),5HT3a,98%
same,"Activity of 5HT3a with peptide, expressed as a percentage of the reference compound",5HT3a,97%
same,"Activity of a3b4 with peptide, expressed as a percentage of the reference compound",α3β4; peptide at 0.2 μM,99%
same,Activity of a3b4 with peptide (percentage of the reference compound),α3β4; peptide at 20 μM,92%
same,"Activity of a4b2 with peptide, expressed as a percentage of the reference compound",α4β2; peptide at 0.2 μM,107%
same,Activity of a4b2 with peptide (percentage of the reference compound),α4β2; peptide at 20 μM,88%
same,"Activity of Cav2.1 with peptide, expressed as a percentage of the reference compound",Cav2.1; peptide at 0.2 μM,95%
same,Activity of Cav2.1 with peptide (percentage of the reference compound),Cav2.1; peptide at 20 μM,93%
same,"Activity of Cav2.2 with peptide, expressed as a percentage of the reference compound",Cav2.2; peptide at 0.2 μM,117%
same,Activity of Cav2.2 with peptide (percentage of the reference compound),Cav2.2; peptide at 20 μM,89%
same,"Activity of Kv2.1 with peptide, expressed as a percentage of the reference compound",Kv2.1; peptide at 0.2 μM,100%
same,Activity of Kv2.1 with peptide (percentage of the reference compound),Kv2.1; peptide at 20 μM,125%
same,"Activity of GABA with peptide, expressed as a percentage of the reference compound",GABA; peptide at 0.2 μM,121%
same,Activity of GABA with peptide (percentage of the reference compound),GABA; peptide at 20 μM,112%
same,"Activity of Nav1.5 with peptide, expressed as a percentage of the reference compound",Nav1.5; [1],124%
same,"Activity of Nav1.5 with peptide, expressed as a percentage of the reference compound",Nav1.5; [2],124%
same,Activity of Nav1.5 with peptide (percentage of the reference compound),Nav1.5; [1],107%
same,Activity of Nav1.5 with peptide (percentage of the reference compound),Nav1.5; [2],112%
same,"Activity of hERG with peptide, expressed as a percentage of the reference compound",hERG; peptide at 0.2 μM,86%
same,Activity of hERG with peptide (percentage of the reference compound),hERG; peptide at 20 μM,71%
same,"Activity of Kir2.1 with peptide, expressed as a percentage of the reference compound",Kir2.1; peptide at 0.2 μM,88%
same,Activity of Kir2.1 with peptide (percentage of the reference compound),Kir2.1; peptide at 20 μM,126%
same,"Activity of Kv1.1 with peptide, expressed as a percentage of the reference compound",Kv1.1; peptide at 0.2 μM,97%
same,Activity of Kv1.1 with peptide (percentage of the reference compound),Kv1.1; peptide at 20 μM,73%
same,"Activity of Kv1.2 with peptide, expressed as a percentage of the reference compound",Kv1.2; peptide at 0.2 μM,100%
same,Activity of Kv1.2 with peptide (percentage of the reference compound),Kv1.2; peptide at 20 μM,84%
same,"Activity of Kv1.3 with peptide, expressed as a percentage of the reference compound",Kv1.3; peptide at 0.2 μM,101%
same,Activity of Kv1.3 with peptide (percentage of the reference compound),Kv1.3; peptide at 20 μM,31%
same,"Activity of Nav1.7 with peptide, expressed as a percentage of the reference compound",Nav1.7; [3],83%
same,"Activity of Nav1.7 with peptide, expressed as a percentage of the reference compound",Nav1.7; [4],143%
same,Activity of Nav1.7 with peptide (percentage of the reference compound),Nav1.7; [3],86%
same,Activity of Nav1.7 with peptide (percentage of the reference compound),Nav1.7; [4],86%
same,"Activity of NR2A with peptide, expressed as a percentage of the reference compound",NR2A; peptide at 0.2 μM,100%
same,Activity of NR2A with peptide (percentage of the reference compound),NR2A; peptide at 20 μM,90%
same,"Activity of NR2B with peptide, expressed as a percentage of the reference compound",NR2B; peptide at 0.2 μM,83%
same,Activity of NR2B with peptide (percentage of the reference compound),NR2B; peptide at 20 μM,88%
same,"Activity of TRPA1 with peptide, expressed as a percentage of the reference compound",TRPA1; peptide at 0.2 μM,138%
same,Activity of TRPA1 with peptide (percentage of the reference compound),TRPA1; peptide at 20 μM,108%
same,"Activity of TRPV1 with peptide, expressed as a percentage of the reference compound",TRPV1; peptide at 0.2 μM,98%
same,Activity of TRPV1 with peptide (percentage of the reference compound),TRPV1; peptide at 20 μM,76%
